Experimental data reported in patent US20260063625A1, “COMPOSITIONS FOR AND METHODS OF DETECTING FOOD TOXINS” (priority 2022, published 2026).
Where a chain is given by its changes, count along the chain named. In names and notes the source's numbering stands.

B1: D785N: RcSxph mutant D785N (protein)
chain: MAPTFQTALFFTIISLSFAAPNAKQVRWCAISDLEQKKCNDLVGSCNVPDITLVCVLRSSTEDCMTAIKDGQADAMFLDSGEVYEASKDPYNLKPIIAEPYSSNRDLQKCLKERQQALAKKMIGHYIPQCDEKGNYQPQQCHGSTGHCWCVNAMGEKISGTNTPPGQTRATCERHELPKCLKERQVALGGDEKVLGRFVPQCDEKGNYEPQQFHGSTGYSWCVNAIGEEIAGTKTPPGKIPATCQKHDLVTTCHYAVAMVKKSSAFQFNQLKGKRSCHSGVSKTDGWKALVTVLVEKKLLSWDGPAKESIQRAMSKFFSVSCIPGATQTNLCKQCKGEEGKNCKNSHDEPYYGNYGAFRCLKEDMGDVAFLRSTALSDEHSEVYELLCPDNTRKPLNKYKECNLGTVPAGTVVTRKISDKTEDINNFLMEAQKRQCKLFSSAHGKDLMFDDSTLQLALLSSEVDAFLYLGVKLFHAMKALTGDAHLPSKNKVRWCTINKLEKMKCDDWSAVSGGAIACTEASCPKGCVKQILKGEADAVKLEVQYMYEALMCGLLPAVEEYHNKDDFGPCKTPGSPYTDFGTLRAVALVKKSNKDINWNNIKGKKSCHTGVGDIAGWVIPVSLIRRQNDNSDIDSFFGESCAPGSDTKSNLCKLCIGDPKNSAANTKCSLSDKEAYYGNQGAFRCLVEKGDVAFVPHTVVFENTDGKNPAVWAKNLKSEDFELLCLDGSRAPVSNYKSCKLSGIPPPAIVTREESISDVVRIVANQQSLYGRKGFEKDMFQLFSSNKGNNLLFNDNTQCLITFNRQPKDIMEDYFGKPYYTTVYGASRSAMSSELISACTIKHC
B2: F561A: RcSxph mutant F561A (protein)
chain: B1 chain with F580A, N804D
B3: D794E: RcSxph mutant D794E (protein)
chain: B1 chain with N804D, D813E
B4: Y558A: RcSxph mutant, alanine for tyrosine at position 558 (protein)
chain: B1 chain with Y577A, N804D
B5: E540D: RcSxph mutant E540D (protein)
chain: B1 chain with E559D, N804D
B6: D794A: RcSxph mutant D794A (protein)
chain: B1 chain with N804D, D813A
B7: MaSxph: Saxiphilin of Mantella aurantiaca, Golden mantella, SEQ ID NO:3 (protein, listed as Mantella aurantiaca)
chain: MALTFQTALYFTIIGLSFVTSSARDVRWCVISDLEQKKCNDLVGSCKVSGITLVCVHRSSTENCMTAIRDEQADAMFLDSGDVYKASMSPYNLKPIIAESYSSHKECLKKRQEALGGANVLGQFVPQCDEKGSYQPQQCYGSTGHCWCVNAIGEEIVGTKTQPGQTQATCERHDQTKCLKDRQKALAKKMIGGFVPQCDEKGNFKPRQCHGSTGYCWCTNANGEKIAATNTPPQQSPPTCERHDLDSCHYAVAVVKKSSIFQFNQLKGKRSCHSGVSKTDGWKAPVSVLVDKNLLSWDRAAKESIEKAVSKFFSDSCIPGATETNLCNQCMGEGGKKCMSSHDEPYYGDHGAFRCLKEDKGDVAFLKNTVLSDTHSEDYELLCPDNTRKPLNKYKECNLGKVPADAVVTRKSGDKIKDINDFLLEAQKKHCQLFSSAHGKDLMFDDSTTQLSLLPPEVDVFFFLGVQWLNTMKTLTADVKPPSKNKVRWCTVNNLEKMKCDDWSAVSGGAIECTEASSPEHCIKQIVKGEADAVTLDVQYMYEALKCGLLPAVEEYHNKDDFGPCKTPGSEIKDFGAKRAVALVKKSNKDINWHNLKGKKSCHTGVGDQAGWIIPVGLISRQIDNCNIDSFFSESCAPGSDTTSNFCKLCIGDPSNPMANTKCSLSDKEAYHGNEGAIRCLVEKGDVAFVHHTAVFENTDGKNPAEWAANLKSEDFEILCLDGSRAPVSNYMTCRLSGVPPRAIVTREESVSDVVRILINQQSLFGRNGFEKDMFQMFSSNKGQNLLFNDGTQCLIEFDRQPRGIMEDYFGKPYYNAVYNTSKCVLPSELTSACTFKHC
B8: RiSxph: Saxiphilin of Ranitomeya imitator, Mimic poison frog, SEQ ID NO:6 (protein)
chain: MRRSSYAASQEMRMTLRVLLCLCLWALSSAAPNTRNVRWCVTSDTEEQKCNDLVTSCHVDEILLICVKKSSTEDCVRAISNGEADAISLDSKDVYKASLDPFNLKPIMTEAYSESEHTPCMRHRQSVLGGKIMKIGAFVPKCDEKGNYVPKQCHGSTGYCWCLNENGEEIEGTRTPPGNPGLTCENKANKPPCLKERQKLLSAKPSPAVFVPECDEKGNYRPQQSHVYSWCVDEYGEEVFGSRSFPGKPPKPCEASGETPCIKERNKVLSAAEPLLGAFVPDCDEKGYFSPLQSHGSTGYSWCVTKNGDEIKGTRTGPGQSPPTCEVPAPVTLHYAVAVVKKSSSFHLDQLKGKRSCHSAVGEAAGWVAPLNVLLKKKLLLWEEPEPKTIEKVASEIFSASCAPGAQEANLCEQCAGQEDKCTRGPGEPYYGDEGAFRCLREDKGDVAFVEDTALTGQYSDNFELLCPDNTRRPLSQYKICNFGRIPRHAVVTRSSGDKMKDITEYLLQAQKKECKLFSSTHGKDLLFEDTTSALIALPSAMDTFLFLGPDLFNGMKTLNGARPPQVNQQIRWCPQSKNEKKKCDDWSSVSGGAIKCTEPSSGLECIKMILKGEAEAVNLDIEHSYIALKCGLLPSVDEYRNKDDLIPCQIPGSEYSEFGSYRIVALVKKTDKDLTWNNLQGKKSCHTRAGDMIGWNIPVYLISKKTKNCDLGSYFSQSCAPGSPIDSNLCKLCIGDPQNPQANTKCSISDKEAYYGHEGAIRCLVEKGDVAFVPHTAIFENTDGKNPALWAKDLKSTDFELLCPDGSRAPVNDYKKCKLSGIANQIAITRPESVKDVVRIIQNQQSLYGRTGSQKDIFQMFSSSYGQNLLFSDRTQCLVEFDRMLDRDIMDDYFGKPFHKHLLRDNDCLPKSALASACSFHH
modifications: Ranitomeya imitator
B9: OsSxph: Saxiphilin of Oophaga sylvatica, Little devil poison frog, SEQ ID NO:5 (protein, listed as Oophaga sylvatica)
chain: MRMTLQVLLCLCLLVLSSAAPNSRNVRWCVTSDTEEQKCNDLVTSCHVDEILLICVKKSSKEDCVRAISNGEADAISLDSKDVYKASLDPFNLKPIMTEAYSESEQTPCMRHRQSVLGGKKMIIGAFVPKCDEKGNYVPKQCHDSTGFCWCLNENGEEIEGTRTPPGNSGLTCENKANKPPCLKERQKLLSAKPSPAVFVPECDEKGNYRPEQSHVYSWCVDEYGEEVLGSRTFPGKPPKPCEASGETPCIKERNKVLSAAEPLPGAFVPDCDEKGYFSPLQFHGSTGHSWCVTKNGEEIKGTRTRPGQTPPTCDVPAPATLHYAVAVVKKSSSFQLDQLKGKRSCHSAVGEAAGWVAPLNVLLKKKFLLWEEPEQKSTEKVASEIFSASCAAGAQEANLCEQCAGQEDKCTRGPGEPYYGDEGAIRCLRDDKGDVAFVEDTALTGQYSDNFELLCPDNTRRPLSQYKICNFGSVPRHAVVTRSTGDKMKEITEYLLQAQKKECKLFSSTHGKDLLFEDTTSALIALPSGMDTFLFLGPDLFNGMKTLNGAHPPRVKQKIRWCPQNKNEKKKCDDWSSVSGGSIKCTEPSSALECIKMILKDEADAVNLDAEHAYTALKCGLLPSLEEYRNKDDLIVCQIPGAEYSEFGSYRIVALVKKTDKDITWNNLQGKKSCHTHVGDMIGWNIPVYLISKKTKNCDLGSYFSQSCAPGSPIDSNLCKLCIGDPQNTEANTKCSLSDKEAYYGNEGAVRCLVETGDVAFVPHTAVFENTDGKNPALWAKDLKSTDFELLCPDGSRAPVSDYKKCKLSGIANHVTVTRPESVKDVVRITQNQESLYGRTGSQKDIFQMFSSSYGQNLLFNDRTQCLFEFDRMLDRDIMDDYLGKPFHKHLMSDNDCLPKSALATACSFHH

How the values were obtained:
[1] = Fluorescence polarization (FP) binding to fluorescein labeled STX; conditions: T = 298K; for […]G (kcal mol^−1) relative to wild-type RcSxph: […]G = RT ln (KdSxph mutant/KdSxph); for […]G (kcal mol^−1) relative to RcSxph: […]G = RT ln (Kd(XSxph)/Kd(RcSxph))
[2] = type: binding; conditions: 1.1 μM Sxph, 0-20 μM STX
[3] = Isothermal titration calorimetry (ITC) of STX into Sxph; type: binding; conditions: 25° C.
Experimental: ITC measurements were performed at 25° C. using a MicroCal PEAQ-ITC calorimeter (Malvern Panalytical). […]. This STX stock was diluted with the SEC buffer to prepare 100 μM or 300 μM STX solutions having a final buffer composition of 135 mM NaCl, 9 mM HEPES, pH 7.4. […]. The calorimetric experiment settings were: reference power, 5 μcal/s; spacing between injections, 150 s; stir speed 750 rpm; and feedback mode, high. Data were analyzed using MicroCal PEAQ-ITC Analysis Software (Malvern Panalytical) using a single binding site model. The heat of dilution from titrations of 100 μM STX in 135 mM NaCl, 9 mM HEPES, pH 7.4 into 135 mM NaCl, 9 mM HEPES, pH 7.4 was subtracted from each experiment to correct the baseline.

Molecule	[…]G (kcal mol^−1) relative to wild-type RcSxph [1] [kcal/mol]	DTm ([…]Tm=TmSxph+20 μM toxin−TmSxph), STX [2]	[…]G [3] [kcal/mol]	[…]H (kcal mol^−1), binding enthalpy [3] [kcal/mol]	[…]S (cal mol^−1 K^−1) [3] [cal mol^−1 K^−1]	[…]G (kcal mol^−1) relative to RcSxph [1] [kcal/mol]
B1	-0.30	DTm increases relative to wild-type				
B2	0.48		-10.8 ± 0.1	-12.7 ± 0.2	−6.6 ± 0.9	
B3	2.94		-8.9 ± 0.1	-11.8 ± 0.0	−8.9 ± 0.1	
B4	-1.00		-12.2 ± 0.2	-15.3 ± 0.0	−11.1 ± 1.1	
B5	1.54		-9.8 ± 0.1	-16.3 ± 1.7	−21.9 ± 5.7	
B6	4.43	complete loss of the thermal shift				
B7						-1.73
B8						-1.32
B9						-1.32
